Laboratory results: patent publication US20220411483A1 (Chugai, published 2022)

T1: FcγRIIb extracellular domain with C-terminal His tag (human, UniProt P31994 43-217)
T1 construct: extracellular domain; also called FcgRIIb
T1 sequence (looked up): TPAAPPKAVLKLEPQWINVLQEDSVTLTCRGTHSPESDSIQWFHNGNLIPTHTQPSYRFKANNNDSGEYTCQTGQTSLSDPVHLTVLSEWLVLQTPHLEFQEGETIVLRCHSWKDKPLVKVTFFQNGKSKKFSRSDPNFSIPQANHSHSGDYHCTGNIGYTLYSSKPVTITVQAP

T2: FcγRIIa R type extracellular domain with C-terminal His tag (human, UniProt P12318 34-217)
T2 construct: extracellular domain; also called FcgRIIaR
T2 sequence (looked up): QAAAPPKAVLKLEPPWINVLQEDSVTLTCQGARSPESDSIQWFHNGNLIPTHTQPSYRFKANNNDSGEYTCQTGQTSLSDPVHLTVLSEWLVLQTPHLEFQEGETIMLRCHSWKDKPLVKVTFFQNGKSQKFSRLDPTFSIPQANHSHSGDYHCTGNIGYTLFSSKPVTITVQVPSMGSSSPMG


Tests used:
Assay in all cases: SPR (Biacore), FcgR as analyte
[1] = biological target: T1, FcγRIIb extracellular domain with …
[2] = biological target: T2, FcγRIIa R type extracellular domain …
[3] = biological target: T3, FcγRIa extracellular domain with C-terminal His tag (human, UniProt P12314 16-292)
T3 construct: also called FcgRIa
T3 sequence (P12314 16-292): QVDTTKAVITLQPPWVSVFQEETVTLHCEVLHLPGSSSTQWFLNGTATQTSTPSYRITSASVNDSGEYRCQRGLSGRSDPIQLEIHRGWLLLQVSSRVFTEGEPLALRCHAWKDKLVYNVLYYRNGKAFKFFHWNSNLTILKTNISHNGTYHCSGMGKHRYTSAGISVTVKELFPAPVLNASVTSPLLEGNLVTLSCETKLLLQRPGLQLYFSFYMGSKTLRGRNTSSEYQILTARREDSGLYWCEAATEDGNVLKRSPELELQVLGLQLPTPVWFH

| Binder | Kd [1] [nM] | Kd [2] [nM] | Kd [3] [nM] |
| --- | --- | --- | --- |
| IL6R-BP130/IL6R-L (antibody, human IgG1, kappa, name in EU numbering, IgG1; alterations on IL6R-B3, EU numbering) heavy: QVQLQESGPGLVKPSETLSLTCAVSGHSISHDHAWSWVRQPPGEGLEWIGFISYSGITNYNPSLQGRVTISRDNSKNTLYLQMNSLRAEDTAVYYCARSLARTTAMDYWGEGTLVTVSSASTKGPSVFPLAPSSKSTSGGTAALGCLVKDYFPEPVTVSWNSGALTSGVHTFPAVLQSSGLYSLSSVVTVPSSSLGTQTYICNVNHKPSNTKVDKKVEPKSCDKTHTCPPCPAPDLLGGDSVFLFPPKPKDTLMISRTPEVTCVVVDVSHEDPEVKFNWYVDGVEVHNAKTKPREEQYNSTYRVVSVLTVLHQDWLNGKEYKCKMSNKALPKPIEKTISKAKGQPREPQVYTLPPSRDELTKNQVSLTCLVKGFYPSDIAVEWESNGQPENNYKTTPPVLDSDGSFFLYSKLTVDKSRWQQGNVFSCSVMHEALHNHYTQESLSLSP light: not shown | 300 | – | – |
| IL6R-BP195/IL6R-L (antibody, human IgG1, kappa, name in EU numbering, IgG1; alterations on IL6R-B3, EU numbering) heavy: QVQLQESGPGLVKPSETLSLTCAVSGHSISHDHAWSWVRQPPGEGLEWIGFISYSGITNYNPSLQGRVTISRDNSKNTLYLQMNSLRAEDTAVYYCARSLARTTAMDYWGEGTLVTVSSASTKGPSVFPLAPSSKSTSGGTAALGCLVKDYFPEPVTVSWNSGALTSGVHTFPAVLQSSGLYSLSSVVTVPSSSLGTQTYICNVNHKPSNTKVDKKVEPKSCDKTHTCPPCPAPDYLGDDSVFLFPPKPKDTLMISRTPEVTCVVVDVSDEDGEVKFNWYVDGVEVHNAKTKPREEQDNSTYRVVSVLTVLHQDWLNGKEYKCKVSNAALPKPIEKTISKAKGQPREPQVYTLPPSRDELTKNQVSLTCLVKGFYPSDIAVEWESNGQPENNYKTTPPVLDSDGSFFLYSKLTVDKSRWQQGNVFSCSVMHEALHNHYTQESLSLSP light: not shown | 50 | 910 | – |
| IL6R-BP201/IL6R-L (antibody, human IgG1, kappa, name in EU numbering, IgG1; alterations on IL6R-B3, EU numbering) heavy: QVQLQESGPGLVKPSETLSLTCAVSGHSISHDHAWSWVRQPPGEGLEWIGFISYSGITNYNPSLQGRVTISRDNSKNTLYLQMNSLRAEDTAVYYCARSLARTTAMDYWGEGTLVTVSSASTKGPSVFPLAPSSKSTSGGTAALGCLVKDYFPEPVTVSWNSGALTSGVHTFPAVLQSSGLYSLSSVVTVPSSSLGTQTYICNVNHKPSNTKVDKKVEPKSCDKTHTCPPCPAPDLLGDDSVFLFPPKPKDTLMISRTPEVTCVVVDVSHEDGEVKFNWYVDGVEVHNAKTKPREEQYNSTYRVVSVLTVLHQDWLNGKEYKCKVSNKALPRPIEKTISKAKGQPREPQVYTLPPSRDELTKNQVSLTCLVKGFYPSDIAVEWESNGQPENNYKTTPPVLDSDGSFFLYSKLTVDKSRWQQGNVFSCSVMHEALHNHYTQESLSLSP light: not shown | 40 | 840 | – |
| IL6R-BP206/IL6R-L (antibody, human IgG1, kappa, name in EU numbering, IgG1; alterations on IL6R-B3, EU numbering) heavy: QVQLQESGPGLVKPSETLSLTCAVSGHSISHDHAWSWVRQPPGEGLEWIGFISYSGITNYNPSLQGRVTISRDNSKNTLYLQMNSLRAEDTAVYYCARSLARTTAMDYWGEGTLVTVSSASTKGPSVFPLAPSSKSTSGGTAALGCLVKDYFPEPVTVSWNSGALTSGVHTFPAVLQSSGLYSLSSVVTVPSSSLGTQTYICNVNHKPSNTKVDKKVEPKSCDKTHTCPPCPAPDLLGGDSVFLFPPKPKDTLMISRTPEVTCVVVDVSHEDGEVKFNWYVDGVEVHNAKTKPREEQYNSTYRVVSVLTVLHQDWLNGKEYKCKVSNKALPRPIEKTISKAKGQPREPQVYTLPPSRDELTKNQVSLTCLVKGFYPSDIAVEWESNGQPENNYKTTPPVLDSDGSFFLYSKLTVDKSRWQQGNVFSCSVMHEALHNHYTQESLSLSP light: not shown | 200 | – | – |
| IL6R-BP203/IL6R-L (antibody, human IgG1, kappa, name in EU numbering, IgG1; alterations on IL6R-B3, EU numbering) heavy: QVQLQESGPGLVKPSETLSLTCAVSGHSISHDHAWSWVRQPPGEGLEWIGFISYSGITNYNPSLQGRVTISRDNSKNTLYLQMNSLRAEDTAVYYCARSLARTTAMDYWGEGTLVTVSSASTKGPSVFPLAPSSKSTSGGTAALGCLVKDYFPEPVTVSWNSGALTSGVHTFPAVLQSSGLYSLSSVVTVPSSSLGTQTYICNVNHKPSNTKVDKKVEPKSCDKTHTCPPCPAPELLGDDSVFLFPPKPKDTLMISRTPEVTCVVVDVSHEDGEVKFNWYVDGVEVHNAKTKPREEQYNSTYRVVSVLTVLHQDWLNGKEYKCKVSNKALPRPIEKTISKAKGQPREPQVYTLPPSRDELTKNQVSLTCLVKGFYPSDIAVEWESNGQPENNYKTTPPVLDSDGSFFLYSKLTVDKSRWQQGNVFSCSVMHEALHNHYTQESLSLSP light: not shown | – | 990 | 180 |
| IL6R-BP239/IL6R-L (antibody, human IgG1, kappa, name in EU numbering, IgG1; alterations on IL6R-B3, EU numbering) heavy: QVQLQESGPGLVKPSETLSLTCAVSGHSISHDHAWSWVRQPPGEGLEWIGFISYSGITNYNPSLQGRVTISRDNSKNTLYLQMNSLRAEDTAVYYCARSLARTTAMDYWGEGTLVTVSSASTKGPSVFPLAPSSKSTSGGTAALGCLVKDYFPEPVTVSWNSGALTSGVHTFPAVLQSSGLYSLSSVVTVPSSSLGTQTYICNVNHKPSNTKVDKKVEPKSCDKTHTCPPCPAPDYLGDDSVFLFPPKPKDTLMISRTPEVTCVVVDVQDEDGEVKFNWYVDGVEVHNAKTKPREEQDNSTYRVVSVLTVLHQDWLNGKEYKCKVSNAALPRPIEKTISKAKGQPREPQVYTLPPSRDELTKNQVSLTCLVKGFYPSDIAVEWESNGQPENNYKTTPPVLDSDGSFFLYSKLTVDKSRWQQGNVFSCSVMHEALHNHYTQESLSLSP light: not shown | 60 | – | – |

The remaining binders from weak to strong by Kd [1], led by results:

| Kd [1] [nM] | Kd [2] [nM] | Kd [3] [nM] | Binder |
| --- | --- | --- | --- |
| 100 | – | – | IL6R-BP237/IL6R-L (antibody, human IgG1, kappa, name in EU numbering, IgG1; alterations on IL6R-B3, EU numbering) heavy: QVQLQESGPGLVKPSETLSLTCAVSGHSISHDHAWSWVRQPPGEGLEWIGFISYSGITNYNPSLQGRVTISRDNSKNTLYLQMNSLRAEDTAVYYCARSLARTTAMDYWGEGTLVTVSSASTKGPSVFPLAPSSKSTSGGTAALGCLVKDYFPEPVTVSWNSGALTSGVHTFPAVLQSSGLYSLSSVVTVPSSSLGTQTYICNVNHKPSNTKVDKKVEPKSCDKTHTCPPCPAPDYLGDDSVFLFPPKPKDTLMISRTPEVTCVVVDVQDEDGEVKFNWYVDGVEVHNAKTKPREEQDNSTYRVVSVLTVLHQDWLNGKEYKCKVSNAALPKPIEKTISKAKGQPREPQVYTLPPSRDELTKNQVSLTCLVKGFYPSDIAVEWESNGQPENNYKTTPPVLDSDGSFFLYSKLTVDKSRWQQGNVFSCSVMHEALHNHYTQESLSLSP light: not shown |
| 40 | – | – | IL6R-BP228/IL6R-L (antibody, human IgG1, kappa, name in EU numbering, IgG1; alterations on IL6R-B3, EU numbering) heavy: QVQLQESGPGLVKPSETLSLTCAVSGHSISHDHAWSWVRQPPGEGLEWIGFISYSGITNYNPSLQGRVTISRDNSKNTLYLQMNSLRAEDTAVYYCARSLARTTAMDYWGEGTLVTVSSASTKGPSVFPLAPSSKSTSGGTAALGCLVKDYFPEPVTVSWNSGALTSGVHTFPAVLQSSGLYSLSSVVTVPSSSLGTQTYICNVNHKPSNTKVDKKVEPKSCDKTHTCPPCPAPEYLGDDSVFLFPPKPKDTLMISRTPEVTCVVVDVQDEDGEVKFNWYVDGVEVHNAKTKPREEQYNSTYRVVSVLTVLHQDWLNGKEYKCKVSNDALPRPIEKTISKAKGQPREPQVYTLPPSRDELTKNQVSLTCLVKGFYPSDIAVEWESNGQPENNYKTTPPVLDSDGSFFLYSKLTVDKSRWQQGNVFSCSVMHEALHNHYTQESLSLSP light: not shown |
| 40 | – | – | IL6R-BP151/IL6R-L (antibody, human IgG1, kappa, name in EU numbering, IgG1; alterations on IL6R-B3, EU numbering) heavy: QVQLQESGPGLVKPSETLSLTCAVSGHSISHDHAWSWVRQPPGEGLEWIGFISYSGITNYNPSLQGRVTISRDNSKNTLYLQMNSLRAEDTAVYYCARSLARTTAMDYWGEGTLVTVSSASTKGPSVFPLAPSSKSTSGGTAALGCLVKDYFPEPVTVSWNSGALTSGVHTFPAVLQSSGLYSLSSVVTVPSSSLGTQTYICNVNHKPSNTKVDKKVEPKSCDKTHTCPPCPAPDYLGDDSVFLFPPKPKDTLMISRTPEVTCVVVDVSHEDPEVKFNWYVDGVEVHNAKTKPREEQYNSTYRVVSVLTVLHQDWLNGKEYKCKVSNAALPRPIEKTISKAKGQPREPQVYTLPPSRDELTKNQVSLTCLVKGFYPSDIAVEWESNGQPENNYKTTPPVLDSDGSFFLYSKLTVDKSRWQQGNVFSCSVMHEALHNHYTQESLSLSP light: not shown |
